1 substance from paper PMC11352577 can be followed below.

For experiment [1], the target named is CD64 (FcγRI) on human primary monocytes and monocyte-derived macrophages (human (endogenous in primary monocytes)) (UniProt P12314).
Experiment [2] concerns the target human KIR3DL1 extracellular domains fused to mouse IgG2a Fc with Avi tag, biotinylated (human) (UniProt P43629). Put plainly: SPR; Biacore T200; biotinylated KIR3DL1 immobilised; IOS-1002 as analyte; HBS-EP, 25 °C; steady-state fits, averaged. For orientation: SPR reads the build-up and loss of mass on a sensor chip optically.
For experiment [3] the target is unchanged. The experiment is described as follows: SPR; Biacore T200; biotinylated receptors immobilised on Series S CAP chip; IOS-1002 as analyte, 5 concentrations 6 to 0.375 uM; HBS-EP, 25 °C; 1:1 fit.

Sequence of UniProt P43629 (P43629 22-340): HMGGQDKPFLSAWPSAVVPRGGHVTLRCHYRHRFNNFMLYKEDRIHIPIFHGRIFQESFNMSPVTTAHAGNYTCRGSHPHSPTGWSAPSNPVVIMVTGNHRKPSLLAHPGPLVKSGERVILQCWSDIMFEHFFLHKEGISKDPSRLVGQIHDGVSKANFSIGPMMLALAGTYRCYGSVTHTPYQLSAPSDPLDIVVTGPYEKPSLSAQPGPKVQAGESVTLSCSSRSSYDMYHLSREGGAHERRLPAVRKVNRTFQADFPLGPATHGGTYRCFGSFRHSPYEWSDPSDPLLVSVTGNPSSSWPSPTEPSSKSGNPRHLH
Sequence of UniProt P12314 (P12314 16-374): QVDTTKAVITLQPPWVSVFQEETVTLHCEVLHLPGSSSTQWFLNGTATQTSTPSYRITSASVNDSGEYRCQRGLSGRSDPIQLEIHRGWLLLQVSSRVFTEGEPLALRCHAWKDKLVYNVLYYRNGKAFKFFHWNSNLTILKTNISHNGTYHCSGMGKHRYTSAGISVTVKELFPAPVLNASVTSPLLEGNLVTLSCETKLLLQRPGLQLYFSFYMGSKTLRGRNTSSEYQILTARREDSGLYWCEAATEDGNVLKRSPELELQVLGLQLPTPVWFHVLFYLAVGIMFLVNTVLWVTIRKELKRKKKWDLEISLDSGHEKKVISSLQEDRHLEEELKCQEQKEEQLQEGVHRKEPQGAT

For “IOS-1002 (HLA-B57^(A46E/V97R).B2m-IgG4_Fc) (from UniProt P61769 21-119) (Fc fusion)”, in experiment [1], the macrophage phagocytosis of H460 cells, dose response (EC50) came out at 0.00333 µM. Further, the dissociation constant (Kd) – broadly, the concentration at which binding is half-saturated – in experiment [2] is 7.48 µM; in experiment [3] it was 3.28 µM.
